Measurements reported in publication PMC2804858.

Biological target: Mcm2-7 hexamer (budding yeast (endogenous in yeast extract) | budding yeast) (UniProt P29469)
Test: negative-stain electron microscopy

stoichiometry N: 2 hexamers
Substance: Mcm2-7 hexamer, P29469 1-868; P24279 1-971; P30665 1-933; P29496 1-775; P53091 1-1017; P38132 1-845
